In the supplement of paper PMC7125110:
± gives the standard error. For part of these data: Variants at the floor of the assay were thinned out.

B1: glmS ribozyme (parent)
chain: AUAAAAGCGCCAGAACUACAGAAAUGUAGUUGACGAGGAGGAGGUUUAUCGAAUUUUCGGCGGAUGCCUCCAAA

Columns and labels:
Conditions in all cases: with glucosamine-6-phosphate
glucosamine-6-phosphate [1] = variants of: B1; test: kcat; higher = faster cleavage; RNA array
How it was run: (§1)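 Sequenced MiSeq chips were the platform: E. coli RNA polymerase transcribed barcoded ribozyme variants on them in situ, and a hybridised Cy3 probe tracked these at 37 °C. After glucosamine-6-phosphate (40 μM to 10 mM) in HEPES/KCl/Mg(OAc)2 buffer was flowed in, tiles were imaged over ~14 h. Signals normalised to baseline and to non-cleaving reference variants were reduced to per-tile medians and fit to one- or two-exponential decays to obtain kobs. kcat and KM were derived through weighted Michaelis–Menten fits across concentrations.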

glucosamine-6-phosphate [2] = variants of: B1; test: KM; higher = weaker cofactor use; RNA array
How it was run: as §1

glucosamine-6-phosphate [3] = variants of: B1; test: self-cleavage kobs at 160 uM GlcN6P; higher = faster cleavage; RNA array
How it was run: as §1

glucosamine-6-phosphate [4] = variants of: B1; test: self-cleavage kobs at 640 uM GlcN6P; higher = faster cleavage; RNA array
How it was run: as §1

glucosamine-6-phosphate [5] = variants of: B1; test: self-cleavage kobs at 2500 uM GlcN6P; higher = faster cleavage; RNA array
How it was run: as §1

glucosamine-6-phosphate [6] = variants of: B1; test: self-cleavage kobs at 10000 uM GlcN6P; higher = faster cleavage; RNA array
How it was run: as §1

glucosamine-6-phosphate [7] = variants of: B1; test: self-cleavage kobs at 40 uM GlcN6P; higher = faster cleavage; RNA array
How it was run: as §1

| Variant | kcat (glucosamine-6-phosphate [1]) | KM (glucosamine-6-phosphate [2]) | self-cleavage kobs at 160 uM GlcN6P (glucosamine-6-phosphate [3]) | self-cleavage kobs at 640 uM GlcN6P (glucosamine-6-phosphate [4]) | self-cleavage kobs at 2500 uM GlcN6P (glucosamine-6-phosphate [5]) | self-cleavage kobs at 10000 uM GlcN6P (glucosamine-6-phosphate [6]) | self-cleavage kobs at 40 uM GlcN6P (glucosamine-6-phosphate [7]) |
| --- | --- | --- | --- | --- | --- | --- | --- |
| C16G U47G | 0.000729 ± 0.00014 s⁻¹ | 1210 ± 400 µM | 7.03e-05 ± 1.6e-05 s⁻¹ | 0.000307 ± 4.8e-05 s⁻¹ | 0.000604 ± 0.0001 s⁻¹ | 0.000565 ± 0.0001 s⁻¹ | – |
| A36G U45A | 3.07e-05 ± 8.9e-06 s⁻¹ | – | – | – | – | – | – |
| G38C C58G C70U | < 1e-05 s⁻¹ | – | – | – | – | – | – |
| C10U U47C | < 1e-05 s⁻¹ | – | – | < 1e-05 s⁻¹ | – | – | < 1e-05 s⁻¹ |
| G41U A42G | 0.000998 ± 0.00021 s⁻¹ | 1240 ± 450 µM | 9.47e-05 ± 2e-05 s⁻¹ | 0.000285 ± 6.2e-05 s⁻¹ | 0.000816 ± 0.00012 s⁻¹ | 0.000843 ± 0.00012 s⁻¹ | 4.79e-05 ± 9.1e-06 s⁻¹ |
| U30G U69A | 8.59e-05 ± 2.5e-05 s⁻¹ | – | 3.45e-05 ± 1.7e-05 s⁻¹ | 4.5e-05 ± 1.1e-05 s⁻¹ | 0.00013 ± 2e-05 s⁻¹ | 6.73e-05 ± 1.4e-05 s⁻¹ | – |
| G40U A53G | 0.00428 ± 0.0018 s⁻¹ | – | 0.000703 ± 0.0002 s⁻¹ | 0.00118 ± 0.00028 s⁻¹ | 0.00316 ± 0.00063 s⁻¹ | 0.0062 ± 0.0017 s⁻¹ | 0.00024 ± 5.5e-05 s⁻¹ |
| C16G G29U U54A | 0.024 ± 0.011 s⁻¹ | – | 0.000446 ± 0.00014 s⁻¹ | 0.00332 ± 0.00054 s⁻¹ | 0.0157 ± 0.0041 s⁻¹ | 0.0148 ± 0.0026 s⁻¹ | 0.000213 ± 4.2e-05 s⁻¹ |
| G32U U54C | 0.000958 ± 0.00028 s⁻¹ | 5300 ± 2300 µM | – | 0.000126 ± 1.5e-05 s⁻¹ | 0.000272 ± 3.3e-05 s⁻¹ | 0.000665 ± 8.6e-05 s⁻¹ | – |
| A15U U49G | 9.5e-05 ± 7.9e-06 s⁻¹ | 1730 ± 470 µM | – | 2.05e-05 ± 9.2e-06 s⁻¹ | 5.99e-05 ± 8e-06 s⁻¹ | 7.95e-05 ± 8.2e-06 s⁻¹ | – |
| G29C U56G | 0.00345 ± 0.0011 s⁻¹ | 6770 ± 2600 µM | 7.08e-05 ± 1.4e-05 s⁻¹ | 0.000321 ± 6e-05 s⁻¹ | 0.00115 ± 0.00022 s⁻¹ | 0.00181 ± 0.00049 s⁻¹ | – |
| G7U A53C C58A U69G C70U | 0.000741 ± 0.00023 s⁻¹ | – | – | – | 0.000875 ± 0.00036 s⁻¹ | – | 7.41e-05 ± 3.3e-05 s⁻¹ |
| C16A U55G | 0.00294 ± 0.001 s⁻¹ | – | 0.000166 ± 3.8e-05 s⁻¹ | 0.000304 ± 5.7e-05 s⁻¹ | 0.00101 ± 0.00012 s⁻¹ | 0.00216 ± 0.00033 s⁻¹ | 4.26e-05 ± 1.2e-05 s⁻¹ |
| G13C A15G U45A | 0.000289 ± 4.4e-05 s⁻¹ | 3490 ± 950 µM | – | 4.01e-05 ± 1.3e-05 s⁻¹ | 0.000129 ± 2.4e-05 s⁻¹ | 0.000208 ± 4.4e-05 s⁻¹ | < 1e-05 s⁻¹ |
| U56C U69C | 3.67e-05 ± 7.4e-06 s⁻¹ | – | – | – | – | 3.13e-05 ± 1.3e-05 s⁻¹ | < 1e-05 s⁻¹ |
| C10G U46A | < 1e-05 s⁻¹ | – | – | < 1e-05 s⁻¹ | < 1e-05 s⁻¹ | – | – |
